Data taken from paper PMC11405125 (Briefings in Bioinformatics, 2024).
Where a chain is given by its changes, count along the chain named. Names may count otherwise.

Target: HIV-1 Bal gp140 (Human immunodeficiency virus 1, isolate …, UniProt Q2MKA8, strain)
Assay: ELISA

B1: HuJ3 E44R (VHH)
VHH: EVQLVESGGGLVQPGGSLRLSCAASGSIFNQYAMAWFRQAPGKRREFVAGMGAVPHYGEFVKGRFTISRDNSKNTVYLQMNSLRAEDTAVYYCARSKSTYISYNSNGYDYWGQGTLVTVS
**Q.** How did the EC50 turn out when B1 was run?
**A.** The EC50 was 1.7 nM.

B2: HuJ3 S102R (VHH)
VHH: B1 VHH with R44E, S102R
**Q.** For B2, which EC50 is on record?
**A.** The EC50 was 10.4 nM.

B3: HuJ3 V54E (VHH)
VHH: B1 VHH with R44E, V54E
**Q.** For B3, which EC50 is on record?
**A.** Its EC50 is 2.31 nM.
